This is an account of results in paper PMC10067955.

The target of the test is NcsA from Methanococcus maripaludis (Methanococcus maripaludis). In words: SEC; apo-MmNcsA on a gel filtration column calibrated with protein standards.

Turning to “NcsA from Methanococcus maripaludis (enzyme)”, the stoichiometry N worked out at 2.
